Assay results reported in the RNAGym collection of RNA variant scans (doi:10.1073/pnas.2313332121).

B1: TPR t1 (parent)
chain: GACCAAUCUGCCCUCAGAGCUCGAGAACAUCUUCGGAUGCAGAGGAGGCAGGCUUCGGUGGCGCGAUAGCGCCAACGUCCUCAACCUCCAAUGCAUCCCACCACAUGAUGAUGCCUGAAGAGCCUUGGUUUUUUG

Variants of: B1
Test: polymerase ribozyme fitness, log enrichment relative to wild type (log ratio); higher = more active; in vitro selection for triplet polymerase activity
Procedure, shortened: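 Mutant libraries for each subunit of a heterodimeric triplet polymerase ribozyme were made by PCR and then transcribed. Each library underwent one round of in vitro selection in triplicate: annealing with a biotinylated primer, the partner subunit and triplets, frozen incubation at −7 °C, gel excision of extended constructs, streptavidin-bead capture and RT-PCR. Input and output libraries were Illumina-sequenced, and only genotypes with ≥10 input reads and ≥1 read per output were kept. Fitness is the logarithm, base 2, of genotype enrichment over wild-type enrichment, computed from inverse-variance-weighted replicate averages.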

| Variant | polymerase ribozyme fitness (log ratio) |
| --- | --- |
| C4U A18C C53A C88G | -3.41 |
| C4G U14A C73G G120A | -3.16 |
| C4U G63A | -1.64 |
| C4A G120C | -0.842 |
| C4G C8U C12A G42A G71A U106A U112G | -4.39 |
| C4U G48C G61U C98U U112C | -0.785 |
| C4G A41C G77A A95C | -3.4 |
| C4U G48U U92G G113C | -3.72 |
| C4U G51C | -2.89 |
| C4A C13U G63C U81A | -2.72 |
| C4A C13A U54G C56A G77A | -4.73 |
| C4U C8G G36U U38A G44U C124A | -5.08 |
| C4A C56A C70A C72U U125G | -4.17 |
| C4A C124U | -1.17 |
| C4G C12G G61C C79A C82A C124U | -3.71 |
| C4U C12U G61A | -0.369 |
| C4G G44U G61U A66U C72G C82A C85A A111C | -6.11 |
| C4U U78C | -0.902 |
| C4G C20U G48C G63A C123G | -2.25 |
| C4G C8G C11A U14G G69C C124U | -2.77 |
| C4U C49U | -0.875 |
| C4U G110U | -1.93 |
| C4U G110A | -1.37 |
| C4A C40U G61U | -1.92 |

| Variant | polymerase ribozyme fitness (log ratio) |
| --- | --- |
| C4G G61U G93A | -2.57 |
| C4G C88A | -2.51 |
| C4U A74U U92G | -3.59 |
| C4G U9A C62G U92A A95G U112C G113A | -5.53 |
| C4U C13A A26U U55G C62U | -4.16 |
| C4U U59A | -0.304 |
| C4U G44C C64U A119U U133A | -2.68 |
| C4U C12U C13U G69C C124G | -0.455 |
| C4A U130G | -1.85 |
| C4G U9C C70U C89U U96A | -3.09 |
| A5C A6U U32C G69C | -1.62 |
| C4U G69A | -2.91 |
| C4U G69U | -0.399 |
| C4A C70U | -1.71 |
| C4A C70G | -3.6 |
| C4G C64U U106C C115G | -5.73 |
| C4G C15A U54A A121C | -2.91 |
| C4A C40U C102G C115A | -6.67 |
| C4G U9A U78C U87G C104A C123U | -2.05 |
| C4G C8G A26G G120U | -0.664 |
| C4G U9G G61U G120C | 0.941 |
| C4G G61C C82G C123U | -3.08 |
| C4G C80U A83C C88U | -5.05 |
| C4A C13G C49G C88G | -4.57 |

| Variant | polymerase ribozyme fitness (log ratio) |
| --- | --- |
| C4G A37G C49G G113C | -4.25 |
| C4U C49U G52A | -3.12 |
| C4U G71U | -0.506 |
| C4U C12G G17C G48A U54C C104A C115G | -2.54 |
| C4U A66G C124G | 0.544 |
| C4G G57A G58C A95C G113U U125C | -6.6 |
| C4A U9G | -0.689 |
| C4G A5G C11U C73G C89A G113U C114U G122U U129G | -5.02 |
| C4A G36C G65U C104U A119G A121U G128U U129A | -6.35 |
| C4G A18C C22U C72G G93U U109C G117C | -5.69 |
| C4G C8G C72U A121G | 1.81 |
| C4A G69A | -4.36 |
| C4U C34A A90C C114G G135A | -5.15 |
| C4U G69C C82A C88G A91U U106A | -5.66 |
| C4G C34A G69U C97U C114A G122U C123A | -3.31 |
| C4G C49G G60C A119U U133A | -3.77 |
| C4U A18G | -3.62 |
| C4G C56A | -2.34 |
| C4A C99U | -4.5 |
| C4U C13G C56G C72U C73A | -5.32 |
| C4A G52C | -2.41 |
| C4U G44U G61A C80G C89G C114U U131G | -7.14 |
| C4A C15U G61A U87A | -2.75 |
| C4G U96A G127U | -1.19 |

| Variant | polymerase ribozyme fitness (log ratio) |
| --- | --- |
| C4G U21C G45A U78A C124G | 0.886 |
| C4G C49A | -2.14 |
| C4G C12G | -1.12 |
| C4G C12A | -1.87 |
| C4G C12U C56A C70U A111C U126A | -3.03 |
| C4G G110U | -2.64 |
| C4A G61U A105U | -4.13 |
| C4G G44U C88A C124A | -1.23 |
| C4A C15U G51A C82G C123U | -5.31 |
| C4A C70G G113A U116A | -6.73 |
| C4U G19A C56G U106A C123G | -3.72 |
| C4G A16G C97U C123U G127A | -4.37 |
| C4A C8A C13U G63U A84C | -2.38 |
| C4U G17U G48A U54G G61A G77U U130C | -3.69 |
| C4A U7G G69C A90C U112C C123U | -3.35 |
| C4U C97A | -5.21 |
| C4A C73G | -2.98 |
| C4U C53U C82A U129C | -2.91 |
| A5C A6U G69U A121G | 2.34 |
| C4G G42A | -3.06 |
| C4G C40U | -1.78 |
| C4G C40G | -2.02 |
| C4G C12A C15A C73U C94A C99U G110C | -7.24 |
| C4U G10C C20A G48U A119G | -3.45 |

| Variant | polymerase ribozyme fitness (log ratio) |
| --- | --- |
| C4U G60U | -0.43 |
| C4U A16G G60C C79A | -4.11 |
| C4U G71A G77U | -1.79 |
| C4U C11G C49U G51A C72U C80U C94G | -1.9 |
| C4A C85A | -2.93 |
| C4A U9A C64U U96C | -0.963 |
| C4G A5U | -2.76 |
| C4A C11G G60A C114G | -5.08 |
| C4U G44U C53U C86G | -3.52 |
| C4U A5C C12G C62U C89U C123G | -1.41 |
| C4U C70A G128C | -4.51 |
| C4G G61C G69U U112A | -1.95 |
| C4G A5U U55C G113A | -4.56 |
| C4G G44U U96A A100U | -3.73 |
| C4A G42U G69U | -1.62 |
| C4U G47A C56U C73U C101U A119G G120U G127A | -0.428 |
| C4U A43U C56G C89U U112C | -0.836 |
| C4A U21G G44U G63U C82A C124G | -4.8 |
| C4A G61U | -1.15 |
| C4A G61A | -1.34 |
| C4A C15G | -4.24 |
| C4U G51U A121C | -1.96 |
| C4U C11G | 0.407 |
| C4U A50G G93A G117U A118U | -4.55 |

| Variant | polymerase ribozyme fitness (log ratio) |
| --- | --- |
| C4G A37U A90C | -2.66 |
| C4U C76G C123A | -0.394 |
| C4U A37G A50C C82A | -1.39 |
| C4U G39U G71U G117A U133A | -3.6 |
| C4A G60A C102U A118U U132C | -4.76 |
| C4U G63U C124G | 0.825 |
| C4A C13U | -1.41 |
| C4G C79U C104U | -1.62 |
| C4A G48U G61C C89U A121G | -1.77 |
| C4U U54A C62G G93C G120U U130C | -5.69 |
| C4U U9G A24U G57C G58U A84G C85A C114G C123G | -7.47 |
| C4G U21A A24G A46U U125A | -4.02 |
| C4U G61C | -2.8 |
| C4U G61U | -0.685 |
| C4A C15G G47U C64U C115G A119U G120U G135U | -7.19 |
| C4U G48U G93A | -2.39 |
| C4U C13U U38A C53A | -1.25 |
| C4U C12G C15G G117C | 0.829 |
| C4A U7A G61A | -0.369 |
| C4G C8G C40G C124U | 0.299 |
| C4U A41U | -1.8 |
| C4U G135U | -1.43 |
| C4A G113U | -3.74 |
| C4U C70U C80A | -5.32 |

| Variant | polymerase ribozyme fitness (log ratio) |
| --- | --- |
| C4A C13U C101G | -4.23 |
| C4A U112A | 0.26 |
| C4A C123A | -0.283 |
| C4G U7C C34U U38G U54G G69U U109A A111G | -5.81 |
| C4G U9C U112C G117A | -1.01 |
| C4G C12U G60U C89G A111U | -5.57 |
| C4G C64U C115A C123A | -3.09 |
| C4G U7C C56U G60U C101A | -6.75 |
| C4U G47A G107U C124U | -3.15 |
| C4U U109A | -5.02 |
| C4G A111C | -0.384 |
| C4U C11G G60A C72G C82U C97U A108G G120A | -3.71 |
| C4A C98U | -2.2 |
| C4G C114U | -3.57 |
| C4U U59A C62A A100C U106A C124G | -0.734 |
| C4G A18U | -4.14 |
| C4A G61C A84U | -4.45 |
| C4G G63A U106G A118G C123G | -2.77 |
| C4G C11G C40A G60A C101G U106C | -4.19 |
| C4G C72A C86U U112C G122A G135C | -0.311 |
| C4A C11U G69U C97G | -3.61 |
| C4U C34A G52C C99A C102U U106C | -6 |
| C4U G52A C114A | -2.66 |
